Tests used:
[1] = tested on: T1, CGPLGLAGGERDGC (MMP9 substrate) peptide cross-linker as presented in MMP9-NANs
T1 sequence: CGPLGLAGGERDGC

[2] = tested on: T2, CGFLGC (cathepsin B substrate) peptide cross-linker as presented in CathB-NANs
T2 sequence: CGFLGC

| Substance | dye release from pep-NAN at pH 7 (fluorescence assay) [1] | dye release from pep-NAN (fluorescence assay) [2] | time to comparable fluorescence change, relative to MMP9-NAN degradation by MMP9 [2] | dye release from pep-NAN (fluorescence assay) [1] | dye release from pep-NAN at pH 5 (fluorescence monitoring) [1] |
| --- | --- | --- | --- | --- | --- |
| MMP2 | The results of these experiments indicated that the MMP9-NAN is specific to the MMP9 enzyme |  |  |  |  |
| MMP1 | The results of these experiments indicated that the MMP9-NAN is specific to the MMP9 enzyme |  |  |  |  |
| cathepsin B |  | MMP9-NANs and CathB-NANs released their dye when treated with their intended enzyme targets, MMP9 and cathepsin B, respectively | it takes ˜20× as long to see comparable fluorescence changes in solution when cathepsin B is added to a solution of CathB-NANs as compared to MMP9-NAN degradation by MMP9 | Cathepsin B activity on MMP9-NANs was also evaluated, in which no fluorescence change was observed |  |
| MMP9 enzyme (matrix metalloproteinase 9) |  |  |  | MMP9-NANs and CathB-NANs released their dye when treated with their intended enzyme targets, MMP9 and cathepsin B, respectively | Exposure of MMP9-NANs to cathepsin B and MMP9 at pH 5 resulted in no observable change in fluorescence |
